The values that follow come from PMC3017776, “Coordinated transcriptional regulation of two key genes in the lignin branch pathway - CAD and CCR - is mediated through MYB- binding sites”.

Where a chain is given by its changes, count along the chain named.

First the molecules themselves.
B1: EgCCR [-119/-70] mutated MYB (dsDNA)
DNA 1: CCTTATAGGGGAGCGGGTCATTTCATGCGGTTCTAGAGTCTTGGTAAACATTGTC
DNA 2: GACAATGTTTACCAAGACTCTAGAACCGCATGAAATGACCCGCTCCCCTATAAGG
B2: EgCAD2 [-203/-129] mutated MYBa (dsDNA)
DNA 1: TGGGAATGGCTAAAAAGCAAGTCTTGACCCTTAACCCACCCCACTGGTTCAGTCGACGCACCTCTGGTTAGGTATTGCTTGCTGAG
DNA 2: CTCAGCAAGCAATACCTAACCAGAGGTGCGTCGACTGAACCAGTGGGGTGGGTTAAGGGTCAAGACTTGCTTTTTAGCCATTCCCA
B3: EgCAD2 [-203/-129] mutated MYBa + MYBb (dsDNA)
DNA 1: B2 DNA 1 with G67A, T68G, T69A, A70T, G71C, G72T
DNA 2: B2 DNA 2 with C15A, C16G, T17A, A18T, A19C, C20T
B4: EgCAD2 [-203/-129] mutated MYBb (dsDNA)
DNA 1: TGGGAATGGCTAAAAAGCAAGTCTTGACCCTTAACCCACCCCACTGGTTCACCTACCGCACCTCTGAGATCTTATTGCTTGCTGAG
DNA 2: CTCAGCAAGCAATAAGATCTCAGAGGTGCGGTAGGTGAACCAGTGGGGTGGGTTAAGGGTCAAGACTTGCTTTTTAGCCATTCCCA

The data set deals with EgMYB2 (R2R3 MYB factor) (UniProt Q70KC5 1-321). Briefly: EMSA; EMSA: 25 mM Tris-HCl pH 8, 250 mM NaCl, 10% glycerol, 7 mM beta-mercaptoethanol, 2 ug poly(dIdC), 25 ul, 30 min, room temperature; 0.125 ug EgMYB2; 4.8% PAGE in 0.5x TBE, 2.5% glycerol. Conditions: protein: recombinant; tags: GST (N-terminal, pGEX-5X-1); label: 32P; blunt.
Chain of EgMYB2 (R2R3 MYB factor) (Q70KC5 entry or part of it): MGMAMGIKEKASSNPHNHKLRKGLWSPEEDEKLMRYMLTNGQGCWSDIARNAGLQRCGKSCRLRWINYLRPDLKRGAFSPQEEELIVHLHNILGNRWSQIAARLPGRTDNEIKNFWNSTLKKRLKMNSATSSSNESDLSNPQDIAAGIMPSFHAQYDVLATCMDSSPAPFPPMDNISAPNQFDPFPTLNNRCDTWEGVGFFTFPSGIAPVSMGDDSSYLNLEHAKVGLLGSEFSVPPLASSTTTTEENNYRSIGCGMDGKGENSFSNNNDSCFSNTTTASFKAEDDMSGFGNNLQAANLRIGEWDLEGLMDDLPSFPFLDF
As to B1, the binding result is listed as “no binding”.

With B2, the binding result is listed as “no binding”.

With B3, the binding result is recorded as “no binding”.

Consider B4, for which the binding result is “no binding”.
